Test [1] concerns the target T1, single-bond CDH23 fusion protein (EC1-5/EC3-5 Fc heterodimer with one EC1-2 binding domain) (mouse, SNAPtag coupled to a benzylguanine DNA tether).
T1 construct: signal peptide in the construct (native; its cleavage on secretion was confirmed); cadherin-23, mouse, EC1-5; signal peptide in the construct (native, preserved by the deletion); cadherin-23, mouse, the EC1-5 construct (base pairs 408-2066 of NM_023370) from which amino acids 25-228 (EC1-2) were deleted, leaving EC3-5; 408-2066 is 1659 bp (553 codons), probably residues 1-553 of the precursor; …
In words: single-molecule force spectroscopy (dual-beam optical tweezers); each protein held on a streptavidin-coated silica bead through a DNA tether on its SNAPtag (R113G proteins and fast loading rates: biotinylated directly with BG-Biotin); room temperature, TBS-TB + Ca^2+ buffer (20 mM Tris, 125 mM NaCl, pH 7.4, 0.02% Tween-20, blocking reagent), 2 mM Ca^2+; loading rates 0.39-377.8 pN s^−1; constants from fits of the …. The note with it: both partners purified.

Test [2] addresses T2, dimeric full-ectodomain CDH23 fusion protein (mouse, UniProt Q99PF4 24-3064, SNAPtag coupled to a benzylguanine DNA tether or BG-Biotin (force spectroscopy), or to a benzylguanine-PEG15-biotin linker (biolayer interferometry)).
T2 construct: cadherin-23, mouse, the entire extracellular domain up to the last hydrophilic amino acid before the transmembrane domain (27 EC domains); The two halves carry opposing Fc heterodimerisation domains and the same cadherin ectodomain; also called full-length dimer; CDH23 dimer; source: HEK Expi293 cells, co-transfected, secreted; purified (Ni-NTA or TALON, size-exclusion on Superose 6 Increase)
Nature of the test: BLI; CDH23 biotinylated on its SNAPtag and immobilised on streptavidin-coated PEG-biotin aminopropylsilane sensors; 10–300 nM PCDH15 in solution; TBS-Tween + Ca^2+ buffer, 2 mM Ca^2+; traces of a drift sensor and of PCDH15 lacking EC1-2 subtracted; dissociation fitted with a single exponential; on-rates measured at 300 nM PCDH15 (effective on-rate); Octet Red384. The settings on record: both partners purified.

What is called koff is the rate constant with which the complex falls apart. For orientation: kon means a measure of how fast the partners come together.

T2 sequence (Q99PF4 24-3064): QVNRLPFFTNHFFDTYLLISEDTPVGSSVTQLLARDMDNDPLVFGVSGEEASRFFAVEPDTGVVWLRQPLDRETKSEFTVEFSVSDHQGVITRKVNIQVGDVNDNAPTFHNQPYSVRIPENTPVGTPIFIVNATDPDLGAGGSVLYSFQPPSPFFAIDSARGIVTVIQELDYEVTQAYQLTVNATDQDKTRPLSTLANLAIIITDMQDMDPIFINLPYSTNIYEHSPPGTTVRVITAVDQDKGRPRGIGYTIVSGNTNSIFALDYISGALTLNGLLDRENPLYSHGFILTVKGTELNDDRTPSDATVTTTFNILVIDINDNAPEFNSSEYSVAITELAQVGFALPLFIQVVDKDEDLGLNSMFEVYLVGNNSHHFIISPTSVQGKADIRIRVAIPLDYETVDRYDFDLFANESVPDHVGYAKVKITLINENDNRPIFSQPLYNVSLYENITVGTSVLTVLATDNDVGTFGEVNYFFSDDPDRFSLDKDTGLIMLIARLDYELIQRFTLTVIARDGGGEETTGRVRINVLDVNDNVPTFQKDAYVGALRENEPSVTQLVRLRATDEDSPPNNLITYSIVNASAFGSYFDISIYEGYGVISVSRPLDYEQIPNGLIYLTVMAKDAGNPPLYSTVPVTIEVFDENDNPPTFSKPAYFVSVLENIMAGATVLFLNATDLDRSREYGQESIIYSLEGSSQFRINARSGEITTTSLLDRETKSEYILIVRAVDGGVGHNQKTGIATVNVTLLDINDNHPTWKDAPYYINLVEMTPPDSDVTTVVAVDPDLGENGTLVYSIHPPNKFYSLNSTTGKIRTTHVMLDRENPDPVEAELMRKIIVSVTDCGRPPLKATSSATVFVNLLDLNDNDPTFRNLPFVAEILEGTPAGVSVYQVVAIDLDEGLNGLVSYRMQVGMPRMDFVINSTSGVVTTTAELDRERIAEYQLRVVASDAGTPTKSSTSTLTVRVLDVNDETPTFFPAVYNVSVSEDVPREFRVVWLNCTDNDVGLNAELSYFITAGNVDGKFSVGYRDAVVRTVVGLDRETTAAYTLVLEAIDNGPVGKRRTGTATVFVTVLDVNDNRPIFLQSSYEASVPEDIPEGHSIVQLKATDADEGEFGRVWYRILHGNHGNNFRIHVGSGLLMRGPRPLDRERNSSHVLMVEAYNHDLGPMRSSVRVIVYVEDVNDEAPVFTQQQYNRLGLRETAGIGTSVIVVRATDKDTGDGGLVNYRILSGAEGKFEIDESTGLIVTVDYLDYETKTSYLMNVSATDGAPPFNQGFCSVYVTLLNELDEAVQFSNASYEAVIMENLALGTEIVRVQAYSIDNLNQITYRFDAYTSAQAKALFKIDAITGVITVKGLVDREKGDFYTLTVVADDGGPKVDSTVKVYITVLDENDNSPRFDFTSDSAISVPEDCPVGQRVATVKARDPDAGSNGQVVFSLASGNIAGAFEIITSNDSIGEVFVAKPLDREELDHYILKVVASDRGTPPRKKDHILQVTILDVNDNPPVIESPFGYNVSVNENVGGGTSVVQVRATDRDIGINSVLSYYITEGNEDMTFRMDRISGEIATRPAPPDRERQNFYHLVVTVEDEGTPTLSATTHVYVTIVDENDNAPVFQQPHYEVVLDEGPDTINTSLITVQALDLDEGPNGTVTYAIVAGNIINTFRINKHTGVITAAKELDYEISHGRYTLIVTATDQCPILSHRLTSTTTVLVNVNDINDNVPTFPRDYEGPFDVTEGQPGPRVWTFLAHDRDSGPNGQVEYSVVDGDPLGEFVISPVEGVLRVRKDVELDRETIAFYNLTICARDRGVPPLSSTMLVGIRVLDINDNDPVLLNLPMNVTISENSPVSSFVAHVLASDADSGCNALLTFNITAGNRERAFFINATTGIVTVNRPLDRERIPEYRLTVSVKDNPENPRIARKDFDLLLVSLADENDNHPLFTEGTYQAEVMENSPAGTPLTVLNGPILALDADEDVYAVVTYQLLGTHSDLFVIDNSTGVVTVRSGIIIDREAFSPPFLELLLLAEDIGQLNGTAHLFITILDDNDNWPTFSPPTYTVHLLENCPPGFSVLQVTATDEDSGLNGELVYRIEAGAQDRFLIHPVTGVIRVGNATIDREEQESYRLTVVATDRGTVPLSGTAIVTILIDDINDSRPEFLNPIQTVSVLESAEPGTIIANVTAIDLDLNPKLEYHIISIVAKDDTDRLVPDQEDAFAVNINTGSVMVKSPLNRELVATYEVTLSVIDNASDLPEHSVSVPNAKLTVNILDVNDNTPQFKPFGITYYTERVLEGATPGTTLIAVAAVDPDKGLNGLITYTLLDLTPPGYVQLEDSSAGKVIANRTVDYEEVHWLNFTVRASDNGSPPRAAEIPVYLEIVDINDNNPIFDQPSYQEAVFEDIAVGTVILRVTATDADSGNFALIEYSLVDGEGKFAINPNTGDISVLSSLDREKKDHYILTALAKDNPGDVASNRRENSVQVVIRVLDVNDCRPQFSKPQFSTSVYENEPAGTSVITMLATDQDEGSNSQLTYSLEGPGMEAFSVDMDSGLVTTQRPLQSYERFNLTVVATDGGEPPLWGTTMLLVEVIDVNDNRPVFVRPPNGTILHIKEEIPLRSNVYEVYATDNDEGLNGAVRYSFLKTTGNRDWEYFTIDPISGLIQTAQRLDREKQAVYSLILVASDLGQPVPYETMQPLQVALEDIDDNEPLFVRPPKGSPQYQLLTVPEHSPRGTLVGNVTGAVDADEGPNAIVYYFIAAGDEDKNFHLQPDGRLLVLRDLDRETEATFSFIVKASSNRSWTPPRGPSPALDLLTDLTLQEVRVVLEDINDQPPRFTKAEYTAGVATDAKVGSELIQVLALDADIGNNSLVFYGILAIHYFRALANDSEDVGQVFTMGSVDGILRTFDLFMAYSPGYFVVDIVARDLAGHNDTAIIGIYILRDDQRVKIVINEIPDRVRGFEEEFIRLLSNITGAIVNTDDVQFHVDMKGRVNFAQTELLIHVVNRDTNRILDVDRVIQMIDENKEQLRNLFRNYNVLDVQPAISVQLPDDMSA

B1: single-bond PCDH15 fusion protein (EC1-5/EC3-5 Fc heterodimer with one EC1-2 binding domain) (Fc fusion)
chain 1: not shown
chain 2: QGDDLGPMFLPCVLVPNTRDCRPLTYQAAIPELRTPEELNPILVTPPIQAIDQDRNIQPPSDRPGILYSILVGTPEDYPRFFHMHPRTAELTLLEPVNRDFHQKFDLVIKAEQDNGHPLPAFASLHIEILDENNQSPYFTMPSYQGYILESAPVGATISESLNLTTPLRIVALDKDIEDTKDPELHLFLNDYTSVFTVTPTGITRYLTLLQPVDREEQQTYTFLITAFDGVQESEPVVVNIRVMDANDNTPTFPEISYDVYVYTDMSPGDSVIQLTAVDADEGSNGEISYEILVGGKGDFVINKTTGLVSIAPGVELIVGQTYALTVQASDNAPPAERRHSICTVYIEVLPPNNQ
modifications: SNAPtag coupled to a benzylguanine DNA tether
For B1, in test [1], the koff was found to be 0.5 ± 0.1 s⁻¹.

B2: dimeric full-ectodomain PCDH15 fusion protein (Fc fusion)
chain: not shown
modifications: SNAPtag coupled to a benzylguanine DNA tether, or to BG-Biotin in some force-spectroscopy conditions
notes: protocadherin-15, mouse, the entire extracellular domain up to the last hydrophilic amino acid before the transmembrane domain (11 EC domains); The two halves carry opposing Fc heterodimerisation domains and the same cadherin ectodomain; also called full-length dimer; full-ectodomain mouse PCDH15; source: HEK Expi293 cells, co-transfected, secreted; purified (Ni-NTA or TALON, size-exclusion on …)
For the molecule B2, the on-rate constant (kon) in test [2] came to 350000 M⁻¹ s⁻¹.

B3: dimeric full-ectodomain PCDH15 R113G^+/+ fusion protein (both strands mutated) (Fc fusion)
chain: not shown
modifications: SNAPtag coupled to BG-Biotin (force spectroscopy without the DNA tether)
notes: A human hereditary deafness mutation put into the mouse protein by site-directed mutagenesis; also called homozygous R113G^+/+; source: HEK Expi293 cells, co-transfected, secreted; purified (Ni-NTA or TALON, size-exclusion on Superose 6 Increase)
Turning to B3, the “mean lifetime of the connection at zero force” value in test [2] was determined as 37 s.

For the origin of these results see article PMC7870652, “Single-molecule force spectroscopy reveals the dynamic strength of the hair-cell tip-link connection” (Nature Communications, 2021).
